Earlier results in publication PMC5408189.

Molecular target: integrin α5β1 (Homo sapiens) (UniProt P08648)
Assay: surface plasmon resonance

UniProt P08648, sequence (P08648 42-1049, chain 1 of 2): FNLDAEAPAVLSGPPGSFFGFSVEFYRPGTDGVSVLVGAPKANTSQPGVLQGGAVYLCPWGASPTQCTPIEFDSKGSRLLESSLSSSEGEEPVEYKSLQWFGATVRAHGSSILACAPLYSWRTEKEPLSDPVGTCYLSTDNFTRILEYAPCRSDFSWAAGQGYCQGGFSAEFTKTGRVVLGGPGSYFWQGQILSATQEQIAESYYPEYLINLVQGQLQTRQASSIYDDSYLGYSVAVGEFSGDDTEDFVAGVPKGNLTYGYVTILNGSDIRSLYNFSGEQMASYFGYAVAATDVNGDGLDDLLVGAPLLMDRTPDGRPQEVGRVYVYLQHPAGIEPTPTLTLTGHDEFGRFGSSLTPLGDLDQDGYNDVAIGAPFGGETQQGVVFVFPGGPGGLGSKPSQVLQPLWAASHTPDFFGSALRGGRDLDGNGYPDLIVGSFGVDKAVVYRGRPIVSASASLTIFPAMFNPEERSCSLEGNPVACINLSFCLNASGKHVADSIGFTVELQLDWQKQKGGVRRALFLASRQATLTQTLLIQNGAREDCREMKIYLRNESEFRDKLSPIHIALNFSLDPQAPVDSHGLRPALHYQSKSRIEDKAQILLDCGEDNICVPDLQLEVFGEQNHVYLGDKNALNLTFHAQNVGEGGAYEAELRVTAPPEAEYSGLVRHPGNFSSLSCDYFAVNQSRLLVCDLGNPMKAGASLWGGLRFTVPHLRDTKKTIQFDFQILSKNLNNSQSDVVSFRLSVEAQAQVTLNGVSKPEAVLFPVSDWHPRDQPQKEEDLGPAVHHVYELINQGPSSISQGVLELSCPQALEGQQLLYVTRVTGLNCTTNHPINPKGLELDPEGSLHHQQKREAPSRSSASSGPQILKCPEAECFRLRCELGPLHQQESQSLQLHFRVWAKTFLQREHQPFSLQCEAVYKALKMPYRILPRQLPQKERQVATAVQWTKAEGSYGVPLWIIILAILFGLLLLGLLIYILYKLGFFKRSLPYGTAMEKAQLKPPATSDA
UniProt P08648, sequence (P05556 21-798, chain 2 of 2, further chain): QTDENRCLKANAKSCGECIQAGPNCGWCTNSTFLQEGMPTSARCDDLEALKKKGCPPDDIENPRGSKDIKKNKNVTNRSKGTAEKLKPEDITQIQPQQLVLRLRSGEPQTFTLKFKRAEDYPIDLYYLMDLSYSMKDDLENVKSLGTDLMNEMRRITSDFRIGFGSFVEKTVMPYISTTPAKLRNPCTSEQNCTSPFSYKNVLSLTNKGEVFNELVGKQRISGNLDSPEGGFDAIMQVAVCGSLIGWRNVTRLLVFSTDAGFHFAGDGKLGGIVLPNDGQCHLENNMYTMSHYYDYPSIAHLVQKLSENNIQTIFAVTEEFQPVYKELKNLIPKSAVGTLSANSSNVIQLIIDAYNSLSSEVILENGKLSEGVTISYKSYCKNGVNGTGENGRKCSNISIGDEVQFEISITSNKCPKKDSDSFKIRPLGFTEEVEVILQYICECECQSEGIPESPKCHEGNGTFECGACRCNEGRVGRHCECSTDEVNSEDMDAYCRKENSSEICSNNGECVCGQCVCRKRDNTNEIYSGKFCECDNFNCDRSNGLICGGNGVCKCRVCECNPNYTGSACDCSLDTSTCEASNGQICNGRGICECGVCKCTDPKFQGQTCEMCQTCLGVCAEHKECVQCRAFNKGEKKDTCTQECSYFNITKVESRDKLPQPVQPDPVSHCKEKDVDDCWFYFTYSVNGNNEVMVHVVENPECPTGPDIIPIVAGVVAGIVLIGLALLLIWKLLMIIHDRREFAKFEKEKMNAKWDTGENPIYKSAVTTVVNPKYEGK

CagA (from UniProt P55980)
Kd: 0.15 nM
